From patent JP2012161321A
Positions count from the first letter of the chain named.

B1: muDS6−DM1細胞傷害性コンジュゲート (muDS6-SPP-DM1) (antibody, from another filing, V domains shown)
VH: QAYLQQSGAELVRSGASVKMSCKASGYTFTSYNMHWVKQTPGQGLEWIGYIYPGNGATNYNQKFKGKATLTADPSSSTAYMQISSLTSEDSAVYFCARGDSVPFAYWGQGTLVTVSA
VL: QIVLTQSPAIMSASPGEKVTITCSAHSSVSFMHWFQQKPGTSPKLWIYSTSSLASGVPARFGGSGSGTSYSLTISRMEAEDAATYYCQQRSSFPLTFGAGTKLELKR
B2: DS6のキメラ型 (chimeric DS6, human constant regions and murine variable regions) (antibody, from another filing, V domains shown)
VH: B1 VH
VL: B1 VL
B3: huDS6v1.01−SPDB−DM4コンジュゲート (antibody, from another filing, human IgG1, V domains shown)
VH: B1 VH with Y3Q, Q5V, L11V, R13K, S14P, K65Q, P74T
VL: B1 VL with Q1E, I10T, K18R, R76S
B4: ヒト化DS6 1.01型 (humanized DS6 version 1.01) (antibody, from another filing, V domains shown)
VH: B1 VH with Y3Q, Q5V, L11V, R13K, S14P, K65Q, P74T
VL: B1 VL with Q1E, I10T, K18R, R76S
B5: ヒト化DS6 1.21型 (humanized DS6 version 1.21) (antibody, from another filing, V domains shown)
VH: B1 VH with Y3Q, Q5V, L11V, R13K, S14P, K65Q
VL: B1 VL with Q1E, I10T, K18R, R76S

How the values were obtained:
[1] = biological target: Muc1ムチン bearing the CA6 sialoglycotope (DS6 antigen), as expressed by CA6-positive human tumour cell lines (human) (UniProt P15941); assay: cell-based or functional assay
UniProt P15941, sequence (P15941 24-1255): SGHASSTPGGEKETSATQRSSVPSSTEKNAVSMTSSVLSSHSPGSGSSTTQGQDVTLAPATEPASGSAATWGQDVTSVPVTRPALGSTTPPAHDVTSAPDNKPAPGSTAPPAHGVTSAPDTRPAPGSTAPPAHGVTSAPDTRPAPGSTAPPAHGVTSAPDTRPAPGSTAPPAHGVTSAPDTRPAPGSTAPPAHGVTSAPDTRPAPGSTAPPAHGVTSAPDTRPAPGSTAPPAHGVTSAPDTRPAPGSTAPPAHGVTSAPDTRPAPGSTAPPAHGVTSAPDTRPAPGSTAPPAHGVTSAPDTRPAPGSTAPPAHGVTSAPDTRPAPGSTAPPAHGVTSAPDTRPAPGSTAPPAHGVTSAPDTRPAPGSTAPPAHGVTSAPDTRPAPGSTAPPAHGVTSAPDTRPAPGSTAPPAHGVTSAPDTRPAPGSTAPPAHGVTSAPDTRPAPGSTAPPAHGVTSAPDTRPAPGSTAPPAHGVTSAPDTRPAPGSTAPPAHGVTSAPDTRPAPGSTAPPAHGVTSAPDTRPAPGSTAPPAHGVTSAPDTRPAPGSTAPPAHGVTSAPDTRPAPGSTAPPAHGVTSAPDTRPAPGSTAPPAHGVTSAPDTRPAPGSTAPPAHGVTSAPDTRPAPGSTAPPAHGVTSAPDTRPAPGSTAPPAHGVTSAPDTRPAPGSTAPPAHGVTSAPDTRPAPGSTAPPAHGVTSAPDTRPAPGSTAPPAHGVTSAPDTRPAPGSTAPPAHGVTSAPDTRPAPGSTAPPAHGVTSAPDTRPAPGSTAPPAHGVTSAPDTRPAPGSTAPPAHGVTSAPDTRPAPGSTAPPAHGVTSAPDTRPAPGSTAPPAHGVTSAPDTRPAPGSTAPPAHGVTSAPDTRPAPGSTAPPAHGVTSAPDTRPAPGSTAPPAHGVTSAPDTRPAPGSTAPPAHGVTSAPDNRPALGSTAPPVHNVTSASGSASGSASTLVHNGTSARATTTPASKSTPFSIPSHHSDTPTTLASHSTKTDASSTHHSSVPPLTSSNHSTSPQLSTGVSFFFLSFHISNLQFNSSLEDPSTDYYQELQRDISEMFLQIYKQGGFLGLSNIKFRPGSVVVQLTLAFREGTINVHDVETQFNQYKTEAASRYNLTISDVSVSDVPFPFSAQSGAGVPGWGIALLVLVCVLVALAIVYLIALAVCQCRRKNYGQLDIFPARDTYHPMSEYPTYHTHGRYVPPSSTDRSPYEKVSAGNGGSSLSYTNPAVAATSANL

[2] = biological target: Muc1ムチン bearing the CA6 sialoglycotope (DS6 antigen), as expressed by CA6-positive human tumour cell lines (human) (UniProt P15941); assay: flow cytometry on Caov-3 cells, apparent Kd (Fig. 20)
[3] = biological target: Muc1ムチン bearing the CA6 sialoglycotope (DS6 antigen), as expressed by CA6-positive human tumour cell lines (human) (UniProt P15941); assay: flow cytometry, direct binding to KB cells, apparent Kd (Fig. 18)
[4] = biological target: Muc1ムチン bearing the CA6 sialoglycotope (DS6 antigen), as expressed by CA6-positive human tumour cell lines (human) (UniProt P15941); assay: flow cytometry competition; competitor 2 nM biotin-muDS6, streptavidin-DTAF (Fig. 19)

Binder | IC50, colony formation assay on Caov-3 cells [1] [nM] | Kd [2] [nM] | Kd [3] [nM] | EC50 [4] [nM] | IC50, in vitro cytotoxicity (MTT) on WISH cells [1] [nM]
B1 | 0.8 | 3.9 |  |  | 
B2 |  |  | 0.69 | 1.7 | 
B3 |  |  |  |  | 0.44
B4 |  |  | 0.82 | 3 | 
B5 |  |  | 0.85 | 1.9 | 
